Positions count from the first letter of the chain named. Where no end group is shown, it is not given here.
B1: ZYG-1 cryptic polo box (CPB), aa 338-564 (domain or fragment, C. elegans, UniProt Q9GT24 338-564, looked up)
chain: GTVPPSREDRNRSQLWPIRMDRLEGQRVCTAGGRYIVELDTRCRFEVAAQGNFVKRILIVEVDEMVQTVYVHRIPDRTVRGRNGEEELITLTNNPFVYTSYSQMPKEVQNDYMRLQKMVAVTISGRVAKVTFRRPSQFPDAQAQLMENGDLRIKLPRSVIVRKMDNGEIFNCIDGIATQKQAVSGITLTKVNEVYKYLIRFEQCLNGMDRGMVCFPIVFSAGTNMVG
modifications: for crystallization: selenomethionine-substituted, lysine methylated; for MST: labelled with Monolith NT.115 Labeling Kit RED-NHS
B2: MBP-CeSPD-2 AR (aa 1-46), WT (domain or fragment, C. elegans, UniProt P91870 1-46, looked up)
chain: MEDDAPMNLCNEQFEEIEDSPIDDNDNESFYNADGDVELEEEEVHE
modifications: also: MBP fusion
B3: Drosophila Plk4 cryptic polo box (DmPlk4 CPB), aa 383-601 (domain or fragment, UniProt O97143 383-601, looked up)
chain: RISVPPLNTKRLLPTRYKTKNAIMSILRNGEVVLEFLKFRPTYNEDRINDICRISDDGQRIIIYQPDPGRGLPVREQPPDLQIPSGDCVYNYDNLPSKHWKKYIYGARFVGLVKSKTPKVTYFSTLGKCQLMETMTDFEIRFYSGAKLLKTPSEGLKVYDRNGMLLSDYSCSESRSLIEHGNECFTHCVNISNALEVAQTKDNSCFPVTIGRRPITDVQ
modifications: for crystallization: lysine methylated; for MST: labelled with Monolith NT.115 Labeling Kit RED-NHS

Columns and labels:
SAXS = target: the molecule itself; assay: SAXS
6×His-ZYG-1 CPB K454E = target: T1, 6×His-ZYG-1 CPB K454E (C. elegans, UniProt Q9GT24 338-564, K454E); assay: pull-down
T1 sequence (looked up): B1 chain with K117E

Row | Binder | stoichiometry N (SAXS) | binding result (6×His-ZYG-1 CPB K454E)
1 | B1 | 2 | 
2 | B2 |  | binds
3 | B3 | 2 | 
